Assay [1] has as its target T1, human CD40 (human, UniProt P25942 21-193).
T1 construct: also called huCD40; TNFRSF5
Description: ELISA; first screen of the VL/VH pairs (Table 4), head in nM.

Assay [2] addresses T1, human CD40. Description: ELISA; further experiments (Table 6 ELISA), reference value in the text. Here is the method:
(§1) An ELISA was performed to confirm that the improved antibodies retained affinity for CD40.
On the technique in general: In an ELISA, binding on a coated surface is turned into a signal by an enzyme label.

The target of assay [3] is T1, human CD40. Description: ELISA.
For assay [4], the target named is T1, human CD40. Description: ELISA. As for the experimental part:
as §1
The source holds these as a separate data set.

In assay [5] the target is T1, human CD40. Description: antigen binding (method not named; ELISA in the rest of Example 2).
Assay [6] addresses T1, human CD40. Put plainly: ELISA; further experiments (Table 6), 4 day titer. Here is the method:
as §1

T1 sequence (P25942 21-193 limits assumed): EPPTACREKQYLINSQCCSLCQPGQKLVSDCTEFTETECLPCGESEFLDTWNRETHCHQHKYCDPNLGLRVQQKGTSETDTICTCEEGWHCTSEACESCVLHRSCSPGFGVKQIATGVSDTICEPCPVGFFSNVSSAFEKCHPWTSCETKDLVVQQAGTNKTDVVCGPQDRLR

B1: antibody 12D6-24 (antibody, human IgG1, kappa, V domains shown)
VH: QVQLVQSGAEVKKPGASVKVSCKASGYTFTGYNMNWVRQAPGQGLEWMGNIDPYYGNTNYNQKFKGRVTMTTDTSTSTAYMELRSLRSDDTAVYYCARLGLQLYALDYWGQGTTVTVSS
VL: DIVMTQTPLSLPVTPGEPASISCRSSQSLVHSNANTYLHWYLQKPGQSPQLLIYKLTNRFFGVPDRFSGSGSGTDFTLKISRVEAEDVGVYYCSQSIHVPWTFGGGTKVEIKR
notes: also called mAb 12D6-24; unmodified 12D6-24
The Kd is the concentration at which binding is half-saturated. Consider B1, for which the figures for the dissociation constant Kd with human CD40 [1] and with human CD40 [2] were 0.2 nM and 0.24 nM, respectively.

B2: 12D6-24 variant L1H2 (antibody, human IgG1, V domains shown)
VH: QVQLVQSGAEVKKPGSSVKVSCKASGYTFTGYNMNWVRQAPGQGLEWMGNIDPYYGNTNYNQKFKGKTTLTADKSTSTAYMELSSLRSDDTAVYYCARLGLQLYALDYWGQGTLVTVSS
VL: DIVMTQTPLSLPVTPGEPASISCRSSQSLVHSNANTYLHWYLQKPGQSPQLLIYKLTNRFFGVPDRFSGSGSGTDFTLKISRVEAEDVGVYYCSQSIHVPWTFGGGTKVEIK
Consider B2, for which binding with human CD40 [3] was put at a Kd of 0.6 nM.

B3: 12D6-24-L4H4 (antibody, human IgG1, V domains shown)
VH: QVQLVQSGAEVKKPGASVKVSCKASGYTFTGYNMNWVRQAPGQGLEWMGNIDPYYGNTNYNQKFKGRTTLTADTSTSTAYMELSSLRSDDTAVYYCARLGLQLYALDYWGQGTLVTVSS
VL: DIVLTQSPDSLAVSLGERATINCRASQSLVHSNANTYLHWYQQKPGQPPKLLIYKLTNRFFGVPDRFSGSGSGTDFTLTISSLQAEDVAVYYCQQSIHVPWTFGQGTKLEIK
Molecule B3 had a Kd with human CD40 [4] of 240 nM. The Kapp in the assay with human CD40 [5] came out at 0.24 nM.

B4: 12D6-24 variant L3H1 (antibody, human IgG1, V domains shown)
VH: QVQLVQSGAEVKKPGASVKVSCKASGYTFTGYNMNWVRQAPGQGLEWMGNIDPYYGNTNYNQKFKGRVTMTTDTSTSTAYMELRSLRSDDTAVYYCARLGLQLYALDYWGQGTTVTVSS
VL: EIVMTQSPATLSVSPGERATLSCRSSQSLVHSNANTYQQKPGQAPRLLIYKLTNRFFGIPDRFSGSGSGTDFTLTISRVEAEDFAVYYCQQSIHVPWTFGQGTKVEIK
For the molecule B4, in the assay with human CD40 [3], the dissociation constant Kd is greater than 100 nM.

B5: 12D6-24 variant L2H1 (antibody, human IgG1, V domains shown)
VH: QVQLVQSGAEVKKPGASVKVSCKASGYTFTGYNMNWVRQAPGQGLEWMGNIDPYYGNTNYNQKFKGRVTMTTDTSTSTAYMELRSLRSDDTAVYYCARLGLQLYALDYWGQGTTVTVSS
VL: EIVMTQSPATLSVSPGERATLSCRASQSVSSNLAWYQQKPGQAPRLLIYKLTNRFFGIPARFSGSGSGTDFTLTISRVEAEDFAVYYCQQSIHVPWTFGQGTKVEIK
With B5, in the assay with human CD40 [3], the Kd is greater than 100 nM.

B6: 12D6-24 variant L5H1 (antibody, human IgG1, V domains shown)
VH: QVQLVQSGAEVKKPGASVKVSCKASGYTFTGYNMNWVRQAPGQGLEWMGNIDPYYGNTNYNQKFKGRVTMTTDTSTSTAYMELRSLRSDDTAVYYCARLGLQLYALDYWGQGTTVTVSS
VL: EIVMTQSPATLSVSPGERATLSCRASQSVSSNLAWYLHWYLQKPGQAPRLLIYKLTNRFFGIPARFSGSGSGTDFTLTISRVEAEDFAVYYCQQSIHVPWTFGQGTKVEIK
B6: the affinity with human CD40 [3], expressed as Kd, was 1.6 nM.

B7: 12D6-24 variant L4H2 (antibody, human IgG1, V domains shown)
VH: QVQLVQSGAEVKKPGSSVKVSCKASGYTFTGYNMNWVRQAPGQGLEWMGNIDPYYGNTNYNQKFKGKTTLTADKSTSTAYMELSSLRSDDTAVYYCARLGLQLYALDYWGQGTLVTVSS
VL: DIVLTQSPDSLAVSLGERATINCRASQSLVHSNANTYLHWYQQKPGQPPKLLIYKLTNRFFGVPDRFSGSGSGTDFTLTISSLQAEDVAVYYCQQSIHVPWTFGQGTKLEIK
With B7, in the assay with human CD40 [5], the Kapp amounted to 0.25 nM. Further, the results for the Kd with human CD40 [1] and with human CD40 [6] were 0.2 nM and 0.25 nM, respectively.

B8: 12D6-24-L4H1 (antibody, human IgG1, V domains shown)
VH: QVQLVQSGAEVKKPGASVKVSCKASGYTFTGYNMNWVRQAPGQGLEWMGNIDPYYGNTNYNQKFKGRVTMTTDTSTSTAYMELRSLRSDDTAVYYCARLGLQLYALDYWGQGTTVTVSS
VL: DIVLTQSPDSLAVSLGERATINCRASQSLVHSNANTYLHWYQQKPGQPPKLLIYKLTNRFFGVPDRFSGSGSGTDFTLTISSLQAEDVAVYYCQQSIHVPWTFGQGTKLEIK
On to B8, for which the Kapp with human CD40 [5] was 0.25 nM. The figures for the Kd with human CD40 [1] and in the assay with human CD40 [6] were 0.2 nM and 0.25 nM, respectively.

B9: 12D6-24 variant L1H4 (antibody, human IgG1, V domains shown)
VH: QVQLVQSGAEVKKPGASVKVSCKASGYTFTGYNMNWVRQAPGQGLEWMGNIDPYYGNTNYNQKFKGRTTLTADTSTSTAYMELSSLRSDDTAVYYCARLGLQLYALDYWGQGTLVTVSS
VL: DIVMTQTPLSLPVTPGEPASISCRSSQSLVHSNANTYLHWYLQKPGQSPQLLIYKLTNRFFGVPDRFSGSGSGTDFTLKISRVEAEDVGVYYCSQSIHVPWTFGGGTKVEIK
Consider B9, for which binding with human CD40 [4] was put at a Kd of 230 nM. The Kapp in the assay with human CD40 [5] came out at 0.22 nM.

B10: 12D6-24 variant L2H2 (antibody, human IgG1, V domains shown)
VH: QVQLVQSGAEVKKPGSSVKVSCKASGYTFTGYNMNWVRQAPGQGLEWMGNIDPYYGNTNYNQKFKGKTTLTADKSTSTAYMELSSLRSDDTAVYYCARLGLQLYALDYWGQGTLVTVSS
VL: EIVMTQSPATLSVSPGERATLSCRASQSVSSNLAWYQQKPGQAPRLLIYKLTNRFFGIPARFSGSGSGTDFTLTISRVEAEDFAVYYCQQSIHVPWTFGQGTKVEIK
In turn, B10 came in with a dissociation constant (Kd) with human CD40 [3] greater than 100 nM.

B11: 12D6-24 variant L5H2 (antibody, human IgG1, V domains shown)
VH: QVQLVQSGAEVKKPGSSVKVSCKASGYTFTGYNMNWVRQAPGQGLEWMGNIDPYYGNTNYNQKFKGKTTLTADKSTSTAYMELSSLRSDDTAVYYCARLGLQLYALDYWGQGTLVTVSS
VL: EIVMTQSPATLSVSPGERATLSCRASQSVSSNLAWYLHWYLQKPGQAPRLLIYKLTNRFFGIPARFSGSGSGTDFTLTISRVEAEDFAVYYCQQSIHVPWTFGQGTKVEIK
Molecule B11 yielded a Kd with human CD40 [3] of 1.6 nM.

Source of the values: patent US20200339700A1 (Bristol-Myers Squibb, published 2020).
